Test results reported in patent US20230365705A1 (DYNAMICURE BIOTECHNOLOGY, published 2023).

T1: Human CD93 on cells (human CD93 expressing CHO cells; HUVEC, U937 and KG1a cells) (human, UniProt Q9NPY3 22-652)
T1 construct: whole, on cells; also called hCD93 expressing CHO cells; hCD93 CHO cells
T1 sequence (looked up): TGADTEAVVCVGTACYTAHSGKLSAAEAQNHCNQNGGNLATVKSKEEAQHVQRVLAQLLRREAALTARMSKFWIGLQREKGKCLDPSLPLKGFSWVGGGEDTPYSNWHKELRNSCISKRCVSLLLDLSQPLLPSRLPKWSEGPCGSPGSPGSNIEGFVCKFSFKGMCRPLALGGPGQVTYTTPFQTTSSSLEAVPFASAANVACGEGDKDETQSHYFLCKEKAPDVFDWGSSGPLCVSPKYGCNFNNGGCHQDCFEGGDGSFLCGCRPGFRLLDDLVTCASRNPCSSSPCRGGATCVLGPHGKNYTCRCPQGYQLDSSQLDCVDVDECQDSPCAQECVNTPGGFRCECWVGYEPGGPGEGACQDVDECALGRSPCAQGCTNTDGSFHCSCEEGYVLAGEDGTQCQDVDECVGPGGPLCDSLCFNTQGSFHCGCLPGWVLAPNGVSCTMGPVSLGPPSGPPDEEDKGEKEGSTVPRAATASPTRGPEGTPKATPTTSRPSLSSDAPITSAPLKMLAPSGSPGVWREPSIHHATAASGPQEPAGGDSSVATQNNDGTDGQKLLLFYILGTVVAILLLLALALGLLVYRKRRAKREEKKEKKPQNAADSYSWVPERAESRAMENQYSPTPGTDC

T2: Human CD93 recombinant protein (Sino Biological Inc, Catalog #12589-H08H) (human, UniProt Q9NPY3 22-580)
T2 construct: Biotinylated (EZ-LINK NHS-PEG4 biotin) in the BLI assays; also called hCD93; His-tagged human CD93
T2 sequence (looked up): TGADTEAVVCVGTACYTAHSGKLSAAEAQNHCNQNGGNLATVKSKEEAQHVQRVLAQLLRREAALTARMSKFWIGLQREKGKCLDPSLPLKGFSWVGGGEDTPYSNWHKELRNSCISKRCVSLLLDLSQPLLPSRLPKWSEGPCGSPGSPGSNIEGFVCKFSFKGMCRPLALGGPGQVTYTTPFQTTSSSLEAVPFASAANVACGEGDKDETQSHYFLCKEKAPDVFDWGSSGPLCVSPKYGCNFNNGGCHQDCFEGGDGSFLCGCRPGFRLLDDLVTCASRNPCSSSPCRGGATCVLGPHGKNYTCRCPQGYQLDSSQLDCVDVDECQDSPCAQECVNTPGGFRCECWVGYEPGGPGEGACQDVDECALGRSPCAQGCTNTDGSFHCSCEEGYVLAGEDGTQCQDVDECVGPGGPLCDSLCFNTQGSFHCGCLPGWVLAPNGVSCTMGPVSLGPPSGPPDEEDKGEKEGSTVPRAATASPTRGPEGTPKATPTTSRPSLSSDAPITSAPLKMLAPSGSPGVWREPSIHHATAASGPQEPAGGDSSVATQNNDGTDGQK

B1: h7F3 (humanized 7F3, VH3+VL3) (antibody, human IgG1, V domains shown)
VH: QVQLVQSGAEVKKPGASVKVSCKASGYTFTDYEMHWVRQAPGQGLEWMGGIDPETGDTAYNQNFKGRVTMTTDTSTSTAYMELRSLTSDDTAVYYCTNYGNLYYYAMDYWGQGTSVTVSS
VL: EIVLTQSPSSLSASVGDRVTITCRASSSVSSSYLHWYQQKPGKAPKLLIYSTSNLAFGVPSRFSGSGSGTSYTFTISSLQPEDIATYYCQQYSGYPLTFGSGTKLEIK
notes: also called humanized 7F3-hIgG1
B2: 16E4 (hybridoma) (antibody, IgG2a, V domains shown)
VH: QVQLQQPGAELVKPGASVKLSCKASGYTFTSYWMHWVKQRPGQGLEWIGEIDPSASYTYYNQKFKGKATLTVDKSSSTAYMQLSSLTSEDSAVYYCARSVYYGNKYFDVWGAGTTVTVSS
VL: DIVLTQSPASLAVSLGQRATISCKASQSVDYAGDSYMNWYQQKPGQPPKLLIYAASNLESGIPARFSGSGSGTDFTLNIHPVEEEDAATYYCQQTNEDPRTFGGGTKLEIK
notes: also called 16E4 mAb; 16E4 mIgG2a
B3: h16E4 (humanized 16E4, VH4+VL6) (antibody, V domains shown)
VH: QVQLVQSGAEVKKPGASVKVSCKASGYTFTSYWMHWVRQAPGQGLEWMGEIDPSASYTYYNQKFKGRVTMTRDKSSSTVYMELSSLTSEDSAVYYCARSVYYGNKYFDVWGAGTTVTVSS
VL: DIQMTQSPSTLSASVGDRVTITCKASQSVDYAGDSYMNWYQQKPGKAPKLLIYAASNLESGVPSRFSGSGSGTEFTLTISSLQPDDFATYYCQQTNEDPRTFGGGTKLEIK
notes: Detected with anti-human IgG, so a human Fc

What was measured:
[1] = biological target: T1, Human CD93 on cells (human CD93 …); experiment: summary table, column FACS (HUVEC cells)
[2] = biological target: T2, Human CD93 recombinant protein (Sino …); experiment: summary table, column ELISA (hCD93)
[3] = biological target: T2, Human CD93 recombinant protein (Sino …); experiment: summary table, column Octet (hCD93)
[4] = biological target: T2, Human CD93 recombinant protein (Sino …); experiment: summary table, column Octet (hCD93); 4 weeks at 40 C
Method: (§1) The binding affinity of anti-CD93 antibodies was determined with bio-layer interferometry using Octet QKe (Fortebio). […] Human CD93 recombinant protein (Sino Biological Inc, Catalog #12589-H08H) was biotinylated using EZ-LINK NHS-PEG4 biotin (Thermo Fisher Scientific). Streptavidin biosensors (Fortebio) were used to load biotinylated CD93 protein (300 seconds in 5 μg/ml). Baseline was stabilized for 60 seconds in 1×kinetics buffer (Fortebio) before anti-CD93 antibodies, at a serial dilution, were allowed to associate for 300 seconds with captured protein. Then the sensors were dissociated in 1× kinetics buffer for 600 seconds. […] (FIG. 41).
as §1, with “1× kinetics” for “1×kinetics”, “42).” for “41).”

[5] = biological target: T1, Human CD93 on cells (human CD93 …); experiment: summary table, column FACS (CHO-hCD93 cells); 4 weeks at 40 C
[6] = biological target: T2, Human CD93 recombinant protein (Sino …); experiment: ELISA, His-tagged human CD93 coated, OD450; antibody stored 2 weeks at 40 C
Method: (§2) His-tagged human CD93 was coated onto a 96 well plate at 1 μg/mL in 1×PBS overnight at 4° C. The plate was washed with ELISA wash buffer (Boston BioProduct, Inc.) and the wells were blocked with ELISA blocking buffer for 1 hour at 37° C. […] The plate was washed with ELISA wash Buffer. HRP-conjugated anti-human Fc antibody was incubated for 1 hour at 37° C. The plate was washed with ELISA wash Buffer. HRP substrate was added for indirect detection of the antibodies binding to CD93.

[7] = biological target: T2, Human CD93 recombinant protein (Sino …); experiment: summary table, column ELISA (hCD93); 2 weeks at 40 C
Method: as §2, §2

| Binder | EC50 [1] | EC50 [2] | Kd [3] | Kd [4] | EC50 [5] | EC50 [6] | EC50 [7] |
| --- | --- | --- | --- | --- | --- | --- | --- |
| B1 | 1.34 nM | 0.0427 nM | 0.472 nM | 0.487 nM | 0.195 nM | 0.0413 nM | 0.0413 nM |
| B2 | 0.2 nM | 0.112 nM | 0.334 nM | – | – | – | – |
| B3 | – | 0.033 nM | 0.416 nM | 0.112 nM | 0.312 nM | 0.049 nM | 0.049 nM |
